In the DeepSol protein solubility set:

Test: soluble on expression in E. coli; label from the status in PepcDB or PDB records

Sequence | soluble on expression in E. coli
MRSRVLWGAARWLWPRRAVGPARRPLSSGSPPLEELFARGGPLRTFLERQAGSEAHLKVRRPELLAVIKLLNEKEQELRETEHLLHDENEDLRKLAENEITLCQKEITQLKHQIILLLVPSEETDENDLILEVTAGVGGQEAMLFTSEIFDMYQQYAAFKRWHFETLEYFPSELGGLRHASASIGGSEAYRHMKFEGGVHRVQRVPKTEKQGRVHTSTMTVAILPQPTEINLVINPKDLRIDTKRASGAGGQHVNTTDSAVRIVHLPTGVVSECQQERSQLKNKELAMTKLRAKLYSMHLEEEINKRQNARKIQIGSKGRSEKIRTYNFPQNRVTDHRINKTLHDLETFMQGDYLLDELVQSLKEYADYESLVEIISQKV | soluble
MLSFRNWWAREDSNPRPPGYEPGALPTELRAHTAIRLYSNKTPLSRSVISMKKDPIKEMLVKYPRILVIKAALKILKDGNKIDRERIEKTIVKIMTKKEGLEHHHHHH | soluble
DEMVRFNPKKMSLKKEQVIKIIKIGAPAGLQGVVFSVSNVCIQSAINGFGTKAIAGSSAALNYEYFTYYVINAFNQTTVTFTSQNYGAKKLERCKKA | not soluble
MGHHHHHHSHMHKSNFETLQHYLESQIIGQHDLVKQLLIALLADGHILVEGPPGLAKTRAVKSLSDCVEGDFHRIQFTPDLLPADLTGTDIFRPETGEFTFQSGPIFNSLILADEINRAPAKVQAAMLEAMAEKQVTAGRHTYALPELFLVMATQNPIEQEGTYPLPEAQLDRFLLHLEVDYPDAEHELAILRINRGEAKGECSIERPSLSQQDIFTARQEVLDIHMAEAIEQYIVRLVMATRRASEYDSELDKWLAMGVSPRATIALDRCARAHAWLAGRDFVSPEDVQAMAYPVLRHRLLLSYHAQAEGVTSNQVIDKLLNLVGSA | soluble
MVPTTPFTIENTPVGRGNSGARSHKEPSAKRKKPTSTPTVRCGTVPQEPSTSAATVTQKPAGSTMATANITETRRIDISSCSDRPLIPCTASGVPLTTFSNKSLDSILNQDSEIVGGISQKDLNELRNRGPNMTVKQLLAKNFKNYKVRQSLTSELATEFVNRTLSENDVPMGALIMPPMEDVQESIVKESKTYNYAAASGGSLPFSNPHSEGILIRSPAIKGPHTLRDVLDSLGSVGTPAANQTLKDVLGSFNSQQPIDPTPSKTLKDVLGSLDLDNDYDLKLKMEGLDHDLKVESPTDAELGLDEFANQILSSKYKGTSLDTDHTAYPGNHLPWPVLWKNPVPKYIQGEIYCYVDGCTYSPMSEIIKSGKFMVPLDHPVEFIFKDRPILVTMEELLTANGINMSKAQHYRMLQGLLQKSGVHIRADYAERLHEFQALMDGLEIEDKPRPALKLSSDKLPLMCIYPDIYMNALGRRIHGAVIVDSSGVQETIGTRTLITRHQIAEFLLENPESPDSPDITTAPSKNSTIGDMMRPKSKIRRTHYVDLNKMVWRHFKDCQAAGIQINGKQLKDQAMRYAKDMGLESFRGSEGWLDAFKRRHRIDLKSMTGYPVCYENDMYEEVDKECRELDMESHMLHQQPPSFFPQSAPDEFAASFFSSLSGFPQQMVVQEPPTTSSSNHLQNMINSMMTPPVVDSRMMPSTSSAGASGASASSQEPDGGGDTIFNVMRSCQIKVADKEVSHALDTLRTYILEHDPAAMSLLVPLQERLATTSSGAIGRDMPSTSSSS | soluble
MTKFNWHESAEKKWDSSAEFWNQNSQEMWDSGSRSTIIPFFEQYVKKEAQVLDVGCGDGYGTYKLSSAGYKAVGVDLSEVMIQKGKERGEGPNLSFIKGDLSALPFENEQFESIMAINSLEWTEEPLRALNEIKRVLKKDGYACIAILGPTAKPRENSYLRLYGKDVVCNTMMPWEFEQLAKEQGFKVIDGIGVYKRGVNEKMLGQLPTELQQSLTFLWVFMLKNV | not soluble
MGDIMRPIPFEELLTRIFDEYQQQRSIFGIPEQQFYSPVKGKTVSVFGETCATPVGPAAGPHTQLAQNIVTSWLTGGRFIELKTVQILDRLELEKPCIDAEDECFNTEWSTEFTLLKAWDEYLKAWFALHLLEAMFQPSDSGKSFIFNMSVGYNLEGIKQPPMQQFIDNMMDASDHPKFAQYRDTLNKLLQDDAFLARHGLQEKRESLQALPARIPTSMVHGVTLSTMHGCPPHEIEAICRYMLEEKGLNTFVKLNPTLLGYARVREILDVCGFGYIGLKEESFDHDLKLTQALEMLERLMALAKEKSLGFGVKLTNTLGTINNKGALPGEEMYMSGRALFPLSINVAAVLSRAFDGKLPISYSGGASQLTIRDIFDTGIRPITMATDLLKPGGYLRLSACMRELEGSDAWGLDHVDVERLNRLAADALTMEYTQKHWKPEERIEVAEDLPLTDCYVAPCVTACAIKQDIPEYIRLLGEHRYADALELIYQRNALPAITGHICDHQCQYNCTRLDYDSALNIRELKKVALEKGWDEYKQRWHKPAGSGSRHPVAVIGAGPAGLAAGYFLARAGHPVTLFEREANAGGVVKNIIPQFRIPAELIQHDIDFVAAHGVKFEYGCSPDLTIEQLKNQGFHYVLIATGTDKNSGVKLAGDNQNVWKSLPFLREYNKGTALKLGKHVVVVGAGNTAMDCARAALRVPGVEKATIVYRRSLQEMPAWREEYEEALHDGVEFRFLNNPERFDADGTLTLRVMSLGEPDEKGRRRPVETNETVTLLVDSLITAIGEQQDTEALNAMGVPLDKNGWPDVDHNGETRLTDVFMIGDVQRGPSSIVAAVGTARRATDAILSRENIRSHQNDKYWNNVNPAEIYQRKGDISITLVNSDDRDAFVAQEAARCLECNYVCSKCVDVCPNRANVSIAVPGFQNRFQTLHLDAYCNECGNCAQFCPWNGKPYKDKITVFSLAQDFDNSSNPGFLVEDCRVRVRLNNQSWVLNIDSKGQFNNVPPELNDMCRIISHVHQHHHYLLGRVEV | soluble
MGRPRVARLDRERIAEAALELVDRDGDFRMPDLARHLNVQVSSIYHHAKGRAAVVELVRHRVVREIDGSAFERLPWDEAFSEWARSYRAAFSRHPTAIRLLATETVRDPGSLSVYHSAAAGLRGAGFPDDHIMAVITAAENFLLGAALDAAAPEVMIEADSTTTDDALTRALAAAPRGPERAEQAFELGLAALLAGFHHLLQECGAVQR | soluble
MGAGSQTTGAGQKKVQTITVGTGTQFPNICFIDEKGDLTGYDVELIKELDKRLPHYKFTFKTMEFSNLLVSLGQHKVDIVAHQMEKSKEREKKFLFNKVAYNHFPLKITVLQNNDTIRGIEDLKGKRVITSATSNGALVLKKWNEDNGRPFEIAYEGQGANETANQLKSGRADATISTPFAVDFQNKTSTIKEKTVGNVLSNAKVYFMFNKNEQTLSDDIDKALQEIIDDGTLKRLSLKWLGDDYSKEQYLEHHHHHH | soluble
MLTIGLYNTYDTKKLHEAHIRAIARAAPVAYAYEFHLALIGFPFDSDDPKEVAERVASTTTIGEGGKYLLELAKSNKFHLLDFPKRGFPPQFGEVIATTSKPSKEKVIGSREVAEMALRGKSLMLIIGLGRHGLPKEVFEISKYHLDITDGREISLETCTAIGIIPARIKTLMEALKWK | not soluble
MEYSYIPSAALYNNADIFQFFPRNKRLNSHQKSRLDEHARKMAAFMMERQEEYRYYENLANQEQFSDDNGMESGFCSGATSTGQSASTSPAPVQLIPNPFFDPEYVAAKTQSPVKLVTNPFFNPELVEEIKKKSQKRNEKSAPVSA | not soluble
MAHHHHHHMTNKKKMSNSETGGTRCVYVLSDIDGFKYRLVMEGDVRLLTTSKLKRYLQNATGLSAQQQELSFRGRVMQDGECGGDVGLVDGAVLQLRHVKGMRRTNSGDGRRVNRLPSSSMSMGGVAHRGRSSVVDAASCASPTAGLLTPLQGSHPRDGQNGGEAFTSPPPREMNYRSKRMGREAHALEIENARLEERLLEMERRLANASSDWRLQEEIEQLKGIIAQLLREKEAVGRSAEEKWRAKEEELVKELDLMREERRRLHREQTLFEEEQRALVRSLEEQVRSQQQRLLEQGTTITQQTRQRQPAMNVAEKVEKSLKQLSLELNIPQLHLDDNDTCVLPLGDGTNILVTLDTITERLFMYAVIANSLPSNAGKRLELFEMLLEGALLGRDMATGGVGVCLRNELIIMNVCVDIVHADEYALASIARPFMESVQHWSEAVKKMMPEKKN | not soluble
MKEEEKTRLVIVQGPTASGKSALALELAERIGGEIVNADSMQVYRGMDIGTAKPSQEERRRVPHHLYDIVDPKVNFTAADFREHASRAIADIERRGKRVILVGGTGLYIRILTQGLVASPGGDDNIRRELEDQAHGEGLESLHRRLAAVDPVAAARLHPNDGVRIVRALEVFLLTGRPLSAFQEAHRFADEPYRCLKLGITVERELLYRRVEERVDRMIAEGLVEEVRGLLSAGYPATLKAMGSIGYREICAHLAGEFSLDEAMRLIKQNTRQYAKRQMTWFRRDSEIIWVEYPGKFDSILSTVMGFYHLEHHHHHH | soluble
EDRPSKAPSFWYKIDPSHTQGYRTVQLVWKTLPPFEANGKILDYEVTLTRWKSHLQNYTVNATKLTVNLTNDRYLATLTVRNLVGKSDAAVLTIPACDFQATHPVMDLKAFPKDNMLWVEWTTPRESVKKYILEWCVLSDKAPCITDWQQEDGTVHRTYLRGNLAESKCYLITVTPVYADGPGSPESIKAYLKQAPPSKGPTVRTKKVGKNEAVLEWDQLPVDVQNGFIRNYTIFYRTIIGNETAVNVDSSHTEYTLSSLTSDTLYMVRMAAYTDEGGKDGPEFTFTTPK | soluble
MNNMSLSDIFERFDTSKDGKISWEEFRDAIHALSPSIPSEKLVEMFIQLDTNGDGQVDAAKFASCMDQTAQSSGGDVEKELKDAFKLYDINCDGKISANELHVVMTRLGEKCTVESCVGMVQAIDVDGDGYIRFVGV | soluble
MAQRLDGARFRYLNEQLYSGPSSAAQRLFQEDPEAFLLYHRGFQSQVKKWPLQPVDRIARDLRQRPASLVVADFGCGDCRLASSIRNPVHCFDLASLDPRVTVCDMAQVPLEDESVDVAVFCLSLMGTNIRDFLEEANRVLKPGGLLKVAEVSSRFEDVRTFLRAVTKLGFKIVSKDLTNSHFFLFDFQKTGPPLVGPKAQLSGLQLQPCLYKRR | soluble
AIAADRTVPHAYPMSMDYEMCTPPRIYDQNFAEALSPKELLAPVLYHGYYIRPRINKQLERGFSQVESEDDWYRVLLDVCQFTPDEISVRTVDNLLEVSARHAQRMDQHGFVSREFTRTYILPMGVDPLLVQVSLSHDGILCIQAPRKTEDLEPQINQLKIKVEKKESTSK | soluble
QVQLQQSGPEDVKPGASVKISCKASGYTFTDYYMNWVKQSPGKGLEWIGDINPNNGGTSYNQKFKGRATLTVDKSSSTAYMELRSLTSEDSSVYYCESQSGAYWGQGTTVTVSA | soluble
MLGDVYHLFSGGKDSSLAAWILRKLGYEVRLVTITFGVLDNWKYAKETADILGFEHEVVRLPRELLNMAVEMCIEDGKPGRAIQFLHEKALEYVASRSYVKRISDGTRRDDKVPFLDLRKARSLEDRFNVAYIRPLLGLGYKTIRELANSIFVIEERESEKLEKGDYEAELRYMLRERGINPKTIFPSRHMQSRVVGIKDDELGRS | soluble
APKASLRLGFSEYSRISNLIVLHLRKVEEEEDESALKRSELVNWYLKEIESEIDSEEELINKKRIIEKVIHRLTHYDHVLIELTQAGLKGSTEGSESYEEDPYLVVNPNYLLED | soluble
